Data published in the nanobody polyreactivity screen of Harvey et al. (2022).

Assay: yeast display, Sf9 membrane polyspecificity reagent, FACS + sequencing; frameworks hold sequencing errors
In short: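 Nanobodies from a synthetic yeast display library (Saccharomyces cerevisiae BJ5465), induced 36–48 hours with galactose, were stained 1 hour at 4 °C with 10% biotinylated, detergent-solubilized Sf9 membrane reagent, enriched on streptavidin microbeads, then FACS-sorted. Anti-HA (expression) and streptavidin (reagent binding) fluorescence set low and high (top ~1%) gates. Polyreactivity labels come from the gate of origin. Genes were colony-PCR amplified, MiSeq 2 × 250 sequenced and filtered by CDR length.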

| Sequence | polyreactivity (PSR sort gate) |
| --- | --- |
| QVQLVESGGGLVQAGGSLRLSCAACGRTFVSYAMGWYRQAPGKERELVAAITNAGSTYYADSVKGRFTISRDNAKNTVYLQMNSLKPEDTAVYYCAATYWDYWGYGYDYWGQGTQVTVSS | high polyreactivity |
| QVQLVESGGGLVQAGGSLRLSCAASGSIITHNTMGWYRQAPGKERELVDSIDSGASTNYADSVKGGFTISRDNAKNTVYLQMNSVKPEDTAVYYCAADVAKFRYRDDYWGQGTQVTVAS | low polyreactivity |
| PVQLVESGGGLVQAGGSLRLSCAASGRTFNSYPMVWYRQAPGKERELVADITSSGGSTYADSVKGRFTISRDNAKNTVYLQMNSLKPEDTAVYYCAVDNISNWAVENDYWGQGTQVTVSS | low polyreactivity |
| QVQLVESGGGLVQAGGSLRLSCAASGSTFSWNTMGWYRQAPGIERELVAAINSGGSTYYADSVKGRFTISRDNAKNSVYLQMNSLKPEDTAVYYCAADWRGSYLYGYYYWGQGTQVTVSS | low polyreactivity |
| QVQLVESGGGLVQAGGSLRLSCAASGFIFDAYALGWYRQAPGKERELVAAITRGNTYYADSVKGRFTISRDNAKNTVYLQMNSLKPEDTAVYYCAARYWQSYRSQVTHSSTLDYWGQGTQVTVSS | low polyreactivity |
| QVQLVESGGGLVQAGGSLRLSCAASGRTFGIYTMGWYRQAPGKERKLVAAISKRGSSTYYADSVKGRFTISRDNAKNTVYLQMNSLKPEDTAVYYCNARSWYIRGSQEYYYWGQGTQVTVSS | high polyreactivity |
| QVQLVESGGGLVQAGGSLRLSCAASGRIFGHYAIGWYRKAPGKERELVAAISTSGGSTYYADSVKGRFTISRDNAKNTVYLQMNSLKPEDTAVYYCAASVVYYPYDYWGQGTQVTVSS | high polyreactivity |
| QVQLVESGGGLVQAGGSLRLSCAASGRTFLPNPMGWYRQAPGKERELVAVITSGGSTNYADSVKGRFTISRDNAKNTVYLQMNSLKPEDTAVYYCAADRYSYFYIGYDYWGQGTQVTVSS | low polyreactivity |
| QVQLVESGGGLVQAGGSLRLSCAASGSIFGLYAMGWYRQAPGKERELVAAITASDGSTYYADSVKGRFTISRDNAKNTVYLQMNSLKPEDTADYYCNADAYSGYFLFDYWGQGTQVTVSS | low polyreactivity |
| QVQLVESGGGLVQAGGSLRLSCAASGRIFRYYDMGWYRPAPGKERELVAAINSGGSTKYADSVKGRFTISRDNAKNTVYLQMNSLKPEDTAVYYCAADKARAWGYDYWGQGTQVTVSS | high polyreactivity |
| QVQLVESGGGLVQAGGSLRLSCAASGSTFPFYAMGWYRQAPGKERELVAAITSGGSTYADSVKGRFTISRDNAKNTVYLQMNSLKPEDTAVYYCAASWPRWWRFGYWGQGTQVTVSS | low polyreactivity |
| QVQLVESGGGLVQAGGSLRLSCAASGFIFGSNAMGWYRQAPGKERELVAAISRSGGSTYYADSVKGRFTISRDNAKNTVYLQMNSLKPEDTAVYYCNVDLWPFVYSWWSYDYWGQGTQVTVSS | high polyreactivity |
| QDQLVESGGGLVQAGGSLRLSCAASGFTFVYNAMGWYRQAPGKERELVAAITSGGNTYYADSVKGRFTISRDNAKNTVYLQMNSLKPEDTAVYYCAADRFTVRMDYWGQGTQVTLSS | high polyreactivity |
| QVQLVESGGGLVQAGGSLRLSCSASGSTFYVYAMGWYRQAPGKERELVAAIDWSDGSTYYADSVKGRFTISRDNAKNTVYLQMNSLKPEDTAVYYCAADVGGGVDYVDYYYWGQGTQVTVSS | high polyreactivity |
| QVQLVESGGGLVQAGGSLRLSCAASGFTFSWYAMGWYRQAPGKEMELVAAIDDGGSTYYADSVKGRFTISRDNAKNTVYLQMNSLKPEDTAVYYCNARGYGTLNVRRERMDYWGQGTQVTVSS | high polyreactivity |
| QVQLVESGGGLVQAGGSLRLSCAASGRISSANAMGWYRPAPGKERELVAAITWSGGSTYYADSVKGRFTISRDNAKNTVYIQMNSMKQEDTAVYYCAAESSAYGGGTSDAGYESDYWGQGTQVTVSS | low polyreactivity |
| QVQHVESGGGLVQAGGSLRLSCAASGRIFSINVMGWYRHAPGKERELVAAISKLGGSTYYADSVKGRFTISRDNAKNTVYLQMNSLKPEDTAVYYCAARRHYTYGNGPSRGGQMDYWGQGTQVTVSS | high polyreactivity |
| QDQLVESVGGLVQAGGSLRLSCAASGSTFTSNAMGWYRQAPGKERELVAVITIGGSTNYADSVKGRFTISLDNAKNSVYLQMNSLKPEDTAVYYCAAELFPLQHFWGAYATRRYDYWGQGTQVTVSS | low polyreactivity |
| QVQLVESGGGLVQAGGSLRLSCAASGRTFDVYTMGWYRQAPGKERELVAAINGGGSTYYADSVKGRFTISRDNAKNTVYSQMNSLKPEDTAVYYCAAKFRAGRSSYYWGQGTQVTVSS | high polyreactivity |
| QVHLQESGGGLVQAGGSLRLSCAASGNIVDADIMGWYRQAPGKERELVASITDGGSTNYADSVKGRFTISRDNAKNTVYLQMNSLKPEDTAVYYCAAIGYPDIPTYFDYDSEYFYWGQGTQVTVSS | low polyreactivity |
| QVQLVESGGGLVQAGGSLRLSCAASGFIFGINAMGWYRQAPGKERELVATITSGGGTNYADSVKGRFTISRDNAKNTVYLQMNSLKPEDTAVYYCAAEEDYIYFYVSMDYWGQGTQVTVSS | low polyreactivity |
| QVQLVESGGGLVQAGGSLRLSCAASGRISGYYAMGWYRQAPGKEREFVAAITRSGGSTYYADSVKGRFTISRDNAKNTVYLQMNSLKPEDTAVYYCAADTRGFSYGNGYGYWGQGTQVTVSS | low polyreactivity |

| Sequence | polyreactivity (PSR sort gate) |
| --- | --- |
| QVQLVESGGGLVQAGGSLRLSCAASGSIFGGYAMGWYRQAPGKERELVATINLGGGSTYADSVKGRFTISRDNAKNTVYLQMNSLKPEDTAVYYCAADVANSIYDYWGQGTQVTVSS | low polyreactivity |
| QVQLVESGGGLVQAGGSLRLSCAASGFIFWSYAMGWYRQAPGKERELVAAISWSGGRTYYADSVKGRFTISRDNAKNTVYLQMNSLKPEDTAVYYCAAVIRYGSQYPALDYWGQGTQVTVSS | high polyreactivity |
| QVQLVESGGGLVQAGGRLRLSCAASGCTSGLNVRGWYRQAPGQERELVAAMSTGGGSTYYADSVKGPFTISRDNAKNTVYLQMTSLQPEDTAVYYCAADQSSVQDFIYNYWAQGTQVTVSS | low polyreactivity |
| QVHLVESGGGLVQAGGSLRLSCAATGRTLTCNARGWYRQAPGKERELVPAISRSGGGSTYYADSVKGRFTISRDTAKNTVYIQMISLKPEDTAVYYCAARYRVHYYWYPMGYWGQGTQVTVSS | high polyreactivity |
| QVQLVESGGGLVQAGGSLRLSCAASGSTFVNNAMGWYRQAPGKERELVAAIRSSDGRTYYADSVKGRFTISRDNAKNTVYLLMNSLKPEDTAGYYCNAGYWRFIDSYDYWGQGTQVTVSS | high polyreactivity |
| QVQLVESGGGLVQAGGSLRLSCAASGSIFSVYAMGWYRQAPGKERELVAAIDFSGGSTYYADSVKGRFTISRDNPKNTVYLQMNSLKPEDTAVYYCAAEYLPYPEYEYDYWGQGTQVTVSS | low polyreactivity |
| QVQLVESGGGLVQAGGSLRLSCAASGSTFTYYSMGWYRQAPGKERELVDAITGRGGRTYYADSVKGRFTISRDNAKNTVYLQMNSLKPEDTAVYYCARYQSSDTYWTKYDYWGQGTQVTVSS | high polyreactivity |
| QVQLVESGGGLVQAGRSLRLSCASSGSTIVNYAMGWYRQAPGKEMELVAAISRSGGRTYYADSVKGRFTISRDNAKNTVYLQMNSLKPEDTAVYYCARLLLSPEYGYWGQGTQVTVSS | high polyreactivity |
| QVQLVESGGGLVQAGGSLRLSWAASGLIFSSNAMGWYRQAPGKERDLVAAITRSGGSTYYADSVKGRFTISRDNAKNTVYLQMNSLKPEDTAVYYCAARYSQRGITFYYWGQGTQVTVSS | high polyreactivity |
| QVQLVESGGGLVQAGGSLRLSCAASGRIFKRNAMGGYRQAPGKDREVVADMSYGHSTYADSVKGRFTISRDNAKKTVYLQMNSLKPEDTAFYYCAKLYWIRTYDYWGQGTQVSVSS | low polyreactivity |
| QVQLVESGGGLVQAGGSLRLSCAASGRIFYLYAMGWYRQATGKERELVAAITWSGGSTTYADSVKGRFTISRDTAKNTVYLQMNSLNPEDTAVYYCNADGWIFPSFSPMDYWGQGTQVTVSS | low polyreactivity |
| QVQLVESGGGLVQAGGSLRLSCAASGSTFTYYAMGWYRQAPGKERELVASINWSGGSTRYADSVKGRFTISRDNAKNTVYLQMNSLKPEDTAVYYCAARKSPRSQVRGRSYYWGQGTQVTVSS | high polyreactivity |
| QVQLVESGGGLVQAGGSLRLSCAASGSIVDWYVMGWYRQAPGKERELVAAITSTGSTYYADSVKGRFTISRDNAKNTVYLQMNSLKPEDTAVYYCATSFYVYPTYYIMDYWGQGTQVTVSS | low polyreactivity |
| QVQLVESGGGLVQAGGSLRLSCAASGFTNAYYAMGWYRQAPGKEREFVASITSGGSTYYADSVKGRFTISRDNAKNTVYLQMNSLKPEDTAVYYCAARSPFYSYTPGYEYWGQGTQVTVSS | high polyreactivity |
| QVQLVESGGGLVQAGGSLRLSCASSGSTFWVNVMGWYRQAPGKERELVATITSGGRTNYADSVKGRFTISRDNAKNTVYLQMNCLKPEDTAVYYCAADLKRGYLMDYWGQGTQVTVSS | low polyreactivity |
| QVQLVESGGGLVQAGGSLRLSCAASGRTFKYYAMGCYRQARGKERELVAAISGSGGSTYYADSVKGRFTISRDNAKNTVYLQMNSLKPEDTAVYYCATGGGKTRSYNYWGKGTQVTVSS | high polyreactivity |
| QVQLVESGGGLVQAGGSLRLSCAASGSIFSRNAMGWYRQAPGKERELVAGISTGGSTNYADSVKGRFTISRDNAKNTVYLQMNSLKPEDTAVYYCAAPLAYEGDDWGQGTQLTVSS | low polyreactivity |
| QVQLVETGGGLVQAGGSLRLSCAASGRTFNVNVKGRYRQAPGKERELVAAINRRGNTYYADSVKGRFTISRDNAKNTVYLQMNSLKPEDTAVYYCAADYRRYGSYDYWGQGTQVTVSS | low polyreactivity |
| QVHLVESGGGLVQAGGSLRLSCAASGRIFYAYAMGWYRPAPVKERELVAAITWSGGSTYYADSVKGRFTISRDNAKNTVYLQMNSLKPEDTAVYYCAADLRVKYVHTYSYVWYRYDYWGQGTQVTVSS | high polyreactivity |
| QVHLVESGGGLVQAGGSLRLTCAASGSILAYNAMGWYRQAPGKERELVAAIRLSGGSTYYADSVKGRFTISRDNAKNTVYLQMNSLKPEDTAVYYCARRYYRYDTRKYNYWGQGTKVTVSS | high polyreactivity |
| QVQLVESGGGLVQAGGSLRLSCAASGSSFGGYARGWYRQAPGKERELVAAISNGDRTNYADSVKGRFTISRDNAKNTVYLQLNSQKPEYTAVYDCATQPLTWSSYRWDWRAQFDHWGQGTQVTVSS | low polyreactivity |
